Experiments:
[1] = molecular target: T1, PSMA (Prostate-Specific Membrane Antigen), glutamate carboxypeptidase 2 (UniProt Q04609 1-750); assay: FACS; table prints γ2 EH2, curve legend prints γ1 EH1
[2] = molecular target: T1, PSMA (Prostate-Specific Membrane …); assay: FACS; LNCaP-AR cells

B1: IAB2M γ2 EH2 (other)
chain: DIVMTQSPSSLSASVGDRVTITCKASQDVGTAVDWYQQKPGKAPKLLIYWASTRHTGVPDRFTGSGSGTDFTLTISSLQPEDFADYFCQQYNSYPLTFGGGTKLEIKGSTSGGGSGGGSGGGGSSEVQLVQSGAEVKKPGASVKISCKTSGYTFTEYTIHWVKQASGKGLEWIGNINPNNGGTTYNQKFEDRATLTVDKSTSTAYMELSSLRSEDTAVYYCAAGWNFDYWGQGTTVTVSSERKSCVECPPCPGGGSSGGGSGGQPREPQVYTLPPSREEMTKNQVSLTCLVKGFYPSDIAVEWESNGQPENNYKTTPPMLDSDGSFFLYSKLTVDKSRWQQGNVFSCSVMHEALHNHYTQKSLSLSPGK
Binder B1 has an EC50 [1] of 0.176 nM and an EC50 [2] of 0.05 nM.
